Measured values taken from US20080044360A1.
Bridge positions count the residues as written; N and C are the ends. Square brackets hold non-standard residues; d marks the D form. Primed or numbered codes have the meaning given here. Ends that are not written are not given here. * marks the point of attachment. GdDTPA‑thiourea = GdT is GdDTPA-thiourea (Gd-DTPA chelate attached through a thiourea); Phe(3,4-(OMe)2) = COc1ccc(C[C@H](N)C(=O)O)cc1OC; dBip = N[C@H](Cc1ccc(-c2ccccc2)cc1)C(=O)O; Phe(4-CN) = N#Cc1ccc(C[C@H](N)C(=O)O)cc1; Orn = NCCC[C@H](N)C(=O)O; Gd^T″ = GdDTPA-thiourea; Cbz = O=C(OCc1ccccc1)*; Dap = NC[C@H](N)C(=O)O; GdT = GdDTPA-thiourea

B1: SEQ ID NO 175 (peptide)
peptide: QWTCSGDEYTWH[dC]NYE
modifications: disulfide 4-13 (inferred); not fully specified (N-terminus); printed as QWTCSGDEYTWHcNYE
B2: SEQ ID NO 176 (peptide)
peptide: QWTCSGDEYTWHC[dN]YE
modifications: disulfide 4-13 (inferred); not fully specified (N-terminus); printed as QWTCSGDEYTWHCnYE
B3: SEQ ID NO 166 (peptide)
peptide: QW[dT]CSGDEYTWHCNYE
modifications: disulfide 4-13 (inferred); not fully specified (N-terminus, C-terminus); printed as QWtCSGDEYTWHCNYE
B4: SEQ ID NO 168 (peptide)
peptide: QWTC[dS]GDEYTWHCNYE
modifications: disulfide 4-13 (inferred); not fully specified (N-terminus); printed as QWTCsGDEYTWHCNYE
B5: SEQ ID NO 165 (peptide)
peptide: Q[dW]TCSGDEYTWHCNYE
modifications: disulfide 4-13 (inferred); not fully specified (N-terminus, C-terminus); printed as QwTCSGDEYTWHCNYE
B6: SEQ ID NO 173 (peptide)
peptide: QWTCSGDEYT[dW]HCNYE
modifications: disulfide 4-13 (inferred); not fully specified (N-terminus); printed as QWTCSGDEYTwHCNYE
B7: Compound ID 903 (peptide)
peptide: GdT-GQWHCTTRFPHH[dBip]CLYG
modifications: disulfide 5-14 (inferred); not fully specified (C-terminus); also: gadolinium complex (GdDTPA)

target: human collagen type I, acid soluble, extracted from placenta (Sigma C7774) (human) (UniProt P02452); experiment: dried collagen assay
Sequence (P02452 162-1218 limits assumed, chain 1 of 2): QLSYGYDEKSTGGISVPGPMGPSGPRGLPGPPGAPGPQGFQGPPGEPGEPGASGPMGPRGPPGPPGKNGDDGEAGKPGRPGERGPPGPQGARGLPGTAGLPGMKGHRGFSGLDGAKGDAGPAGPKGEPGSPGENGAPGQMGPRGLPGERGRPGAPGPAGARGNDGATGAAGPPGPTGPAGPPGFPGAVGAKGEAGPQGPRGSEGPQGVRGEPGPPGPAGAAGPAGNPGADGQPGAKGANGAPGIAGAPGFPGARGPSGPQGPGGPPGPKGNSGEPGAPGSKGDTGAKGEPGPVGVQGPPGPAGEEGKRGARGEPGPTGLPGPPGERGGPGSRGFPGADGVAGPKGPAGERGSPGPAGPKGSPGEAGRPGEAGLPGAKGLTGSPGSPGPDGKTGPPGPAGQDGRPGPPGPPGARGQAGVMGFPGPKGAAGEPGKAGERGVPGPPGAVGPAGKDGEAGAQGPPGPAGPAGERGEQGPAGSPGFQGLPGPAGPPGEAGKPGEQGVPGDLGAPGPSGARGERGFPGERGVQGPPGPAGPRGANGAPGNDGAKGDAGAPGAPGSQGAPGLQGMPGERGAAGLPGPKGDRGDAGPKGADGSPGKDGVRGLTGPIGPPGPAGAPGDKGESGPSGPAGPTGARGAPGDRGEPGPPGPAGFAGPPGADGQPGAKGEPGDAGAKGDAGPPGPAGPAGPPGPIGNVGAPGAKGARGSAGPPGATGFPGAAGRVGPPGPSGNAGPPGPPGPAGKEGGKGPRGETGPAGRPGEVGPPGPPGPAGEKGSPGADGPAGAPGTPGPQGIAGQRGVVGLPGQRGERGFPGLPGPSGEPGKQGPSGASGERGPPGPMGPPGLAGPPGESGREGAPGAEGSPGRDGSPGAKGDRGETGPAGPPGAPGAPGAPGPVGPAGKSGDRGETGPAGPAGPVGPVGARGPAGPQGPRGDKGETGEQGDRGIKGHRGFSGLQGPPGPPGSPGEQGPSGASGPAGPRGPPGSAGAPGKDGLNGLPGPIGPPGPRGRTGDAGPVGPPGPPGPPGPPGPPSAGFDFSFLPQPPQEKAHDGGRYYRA
Sequence (P08123 80-1119 limits assumed, chain 2 of 2, further chain): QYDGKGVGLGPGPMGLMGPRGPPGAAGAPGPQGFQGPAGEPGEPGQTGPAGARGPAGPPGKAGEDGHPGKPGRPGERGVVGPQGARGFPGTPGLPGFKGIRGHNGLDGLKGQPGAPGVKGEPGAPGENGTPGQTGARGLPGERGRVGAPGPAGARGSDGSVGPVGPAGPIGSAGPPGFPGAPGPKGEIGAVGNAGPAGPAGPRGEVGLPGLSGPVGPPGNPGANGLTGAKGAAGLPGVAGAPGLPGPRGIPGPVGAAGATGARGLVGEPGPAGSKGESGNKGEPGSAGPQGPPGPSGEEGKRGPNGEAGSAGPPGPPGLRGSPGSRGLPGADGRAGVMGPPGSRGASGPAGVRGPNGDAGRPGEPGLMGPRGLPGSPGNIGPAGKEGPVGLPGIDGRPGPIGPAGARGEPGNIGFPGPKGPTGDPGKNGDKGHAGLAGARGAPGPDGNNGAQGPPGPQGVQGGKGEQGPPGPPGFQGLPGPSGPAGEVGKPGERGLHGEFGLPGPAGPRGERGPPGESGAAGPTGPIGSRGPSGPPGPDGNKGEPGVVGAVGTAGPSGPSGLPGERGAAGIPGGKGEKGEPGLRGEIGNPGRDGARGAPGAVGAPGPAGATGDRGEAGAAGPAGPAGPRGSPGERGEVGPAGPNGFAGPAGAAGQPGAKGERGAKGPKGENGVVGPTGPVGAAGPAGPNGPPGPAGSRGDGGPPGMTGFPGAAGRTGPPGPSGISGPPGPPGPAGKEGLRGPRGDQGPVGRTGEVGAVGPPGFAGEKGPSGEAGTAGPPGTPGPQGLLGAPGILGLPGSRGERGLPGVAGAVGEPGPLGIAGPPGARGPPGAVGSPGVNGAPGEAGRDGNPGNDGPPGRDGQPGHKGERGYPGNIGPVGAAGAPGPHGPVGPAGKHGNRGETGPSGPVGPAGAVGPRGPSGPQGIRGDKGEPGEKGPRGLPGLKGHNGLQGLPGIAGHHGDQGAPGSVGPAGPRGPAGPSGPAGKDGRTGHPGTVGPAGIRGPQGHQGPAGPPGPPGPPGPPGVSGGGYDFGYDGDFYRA

% bound [%]	Binder
8	{Gd^T″}-GQWHCTTRFPHAYCLYG (disulfide 5-14 (inferred)) [Compound ID 878]
2	B1
2	B2
2	B3
3	B4
4	Cbz-GQWHCT[Dap](GdDTPA‑thiourea)RFPHHYCLYG (disulfide 5-14 (inferred); also: gadolinium complex (GdDTPA)) [Compound ID 939]
6	{Gd^T″}-GQWHCTTLFPHH[dY]CLYG (disulfide 5-14 (inferred); not fully specified (C-terminus)) [Compound ID 907]
8	{Gd^T″}-GQWHCTTD[Phe(4-CN)]PHHYCLYG (disulfide 5-14 (inferred)) [Compound ID 883]
4	{Gd^T″}-GQWHCTTD[Phe(3,4-(OMe)2)]PHHYCLYG (disulfide 5-14 (inferred)) [Compound ID 893]
2	B5
2	{Gd^T″}-GQWHCTTRFPHH[dF]CLYG (disulfide 5-14 (inferred); not fully specified (C-terminus)) [Compound ID 901]
5	B6
8	Cbz-GQWHCT[Orn](GdDTPA‑thiourea)RFPHHYCLYG (disulfide 5-14 (inferred); also: gadolinium complex (GdDTPA)) [Compound ID 941]
37	[dY][dH][dA][dC][dY][dQ][dA]G[dC][dW][dI][dW] (disulfide 4-9 (inferred); not fully specified (C-terminus)) [SEQ ID NO 163]
3	B7

target: rat collagen, acid soluble, type I, rat tail (Upstate 08-115) (rat) (UniProt P02454); experiment: dried collagen assay
Sequence (P02454 152-1207, chain 1 of 2): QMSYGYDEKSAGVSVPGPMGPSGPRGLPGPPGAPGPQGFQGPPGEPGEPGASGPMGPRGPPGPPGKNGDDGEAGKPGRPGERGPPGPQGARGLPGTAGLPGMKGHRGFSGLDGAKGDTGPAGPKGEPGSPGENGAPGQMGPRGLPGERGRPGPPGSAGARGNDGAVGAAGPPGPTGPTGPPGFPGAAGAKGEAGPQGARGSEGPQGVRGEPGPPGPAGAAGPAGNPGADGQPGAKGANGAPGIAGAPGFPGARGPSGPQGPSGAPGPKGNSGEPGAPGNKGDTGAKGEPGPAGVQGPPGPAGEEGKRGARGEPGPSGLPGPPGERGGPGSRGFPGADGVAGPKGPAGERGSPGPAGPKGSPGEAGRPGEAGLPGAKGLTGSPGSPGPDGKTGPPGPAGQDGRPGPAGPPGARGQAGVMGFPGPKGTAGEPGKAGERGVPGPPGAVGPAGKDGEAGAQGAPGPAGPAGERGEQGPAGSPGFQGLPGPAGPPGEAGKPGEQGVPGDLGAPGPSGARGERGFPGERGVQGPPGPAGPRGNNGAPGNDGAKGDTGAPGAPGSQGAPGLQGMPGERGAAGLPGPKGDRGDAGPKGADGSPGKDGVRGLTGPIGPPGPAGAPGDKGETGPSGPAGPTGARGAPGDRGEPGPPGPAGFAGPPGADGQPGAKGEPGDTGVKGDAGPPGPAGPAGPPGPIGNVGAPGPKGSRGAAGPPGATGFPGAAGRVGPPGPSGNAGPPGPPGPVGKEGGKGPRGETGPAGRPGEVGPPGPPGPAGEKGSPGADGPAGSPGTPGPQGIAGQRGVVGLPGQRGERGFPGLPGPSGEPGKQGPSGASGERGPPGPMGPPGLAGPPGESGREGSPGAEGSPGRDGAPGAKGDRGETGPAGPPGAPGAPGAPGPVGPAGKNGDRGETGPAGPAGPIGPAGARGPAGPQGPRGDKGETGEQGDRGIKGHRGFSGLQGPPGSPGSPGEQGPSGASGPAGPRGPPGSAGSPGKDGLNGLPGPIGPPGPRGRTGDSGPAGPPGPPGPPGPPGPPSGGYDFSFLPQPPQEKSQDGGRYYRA
Sequence (P02466 86-1125, chain 2 of 2, further chain): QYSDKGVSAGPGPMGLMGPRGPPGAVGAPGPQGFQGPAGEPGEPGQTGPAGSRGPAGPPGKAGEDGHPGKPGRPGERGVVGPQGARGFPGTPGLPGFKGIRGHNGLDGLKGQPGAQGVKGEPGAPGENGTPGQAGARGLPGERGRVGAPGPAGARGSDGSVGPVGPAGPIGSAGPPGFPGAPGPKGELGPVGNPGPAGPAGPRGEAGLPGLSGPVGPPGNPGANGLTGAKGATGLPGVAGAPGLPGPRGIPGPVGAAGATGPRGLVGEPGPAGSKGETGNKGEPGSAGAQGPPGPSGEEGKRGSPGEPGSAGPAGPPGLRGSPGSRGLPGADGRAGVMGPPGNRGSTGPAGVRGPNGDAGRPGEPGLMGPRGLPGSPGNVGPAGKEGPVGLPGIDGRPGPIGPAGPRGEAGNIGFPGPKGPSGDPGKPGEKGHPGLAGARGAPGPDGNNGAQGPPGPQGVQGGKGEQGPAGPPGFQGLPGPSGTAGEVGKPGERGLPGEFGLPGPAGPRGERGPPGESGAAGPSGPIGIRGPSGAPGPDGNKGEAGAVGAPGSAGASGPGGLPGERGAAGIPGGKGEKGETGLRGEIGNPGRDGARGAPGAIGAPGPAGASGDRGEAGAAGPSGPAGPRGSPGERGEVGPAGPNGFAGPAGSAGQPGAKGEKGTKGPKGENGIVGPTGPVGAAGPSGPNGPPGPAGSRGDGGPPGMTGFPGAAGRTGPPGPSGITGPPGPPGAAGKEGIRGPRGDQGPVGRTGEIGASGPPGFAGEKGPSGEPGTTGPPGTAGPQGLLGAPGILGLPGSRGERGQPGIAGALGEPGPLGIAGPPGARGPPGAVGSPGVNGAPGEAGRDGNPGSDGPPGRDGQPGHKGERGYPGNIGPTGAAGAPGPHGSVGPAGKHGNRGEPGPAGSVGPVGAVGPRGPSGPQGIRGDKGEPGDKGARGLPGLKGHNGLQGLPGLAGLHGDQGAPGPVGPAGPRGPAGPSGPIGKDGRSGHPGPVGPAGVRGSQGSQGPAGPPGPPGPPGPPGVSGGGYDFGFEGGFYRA

% bound [%]	Binder
9	{Gd^T″}-GQWHCTTRFPHAYCLYG (disulfide 5-14 (inferred)) [Compound ID 878]
2	B1
2	B2
3	B3
2	B4
5	Cbz-GQWHCT[Dap](GdDTPA‑thiourea)RFPHHYCLYG (disulfide 5-14 (inferred); also: gadolinium complex (GdDTPA)) [Compound ID 939]
1	{Gd^T″}-GQWHCTTLFPHH[dY]CLYG (disulfide 5-14 (inferred); not fully specified (C-terminus)) [Compound ID 907]
2	{Gd^T″}-GQWHCTTD[Phe(4-CN)]PHHYCLYG (disulfide 5-14 (inferred)) [Compound ID 883]
2	{Gd^T″}-GQWHCTTD[Phe(3,4-(OMe)2)]PHHYCLYG (disulfide 5-14 (inferred)) [Compound ID 893]
4	B5
2	{Gd^T″}-GQWHCTTRFPHH[dF]CLYG (disulfide 5-14 (inferred); not fully specified (C-terminus)) [Compound ID 901]
4	B6
5	Cbz-GQWHCT[Orn](GdDTPA‑thiourea)RFPHHYCLYG (disulfide 5-14 (inferred); also: gadolinium complex (GdDTPA)) [Compound ID 941]
53	[dY][dH][dA][dC][dY][dQ][dA]G[dC][dW][dI][dW] (disulfide 4-9 (inferred); not fully specified (C-terminus)) [SEQ ID NO 163]
5	B7
